Assay results: the supplement of paper PMC9112550, “Optimization of the antimicrobial peptide Bac7 by deep mutational scanning” (BMC Biology, 2022)

Tested on: Escherichia coli TOP10
Experiment: shrunken log2 fold change of peptide-encoding DNA abundance (4.5 h post-induction vs induction); higher = less antimicrobial activity (less host growth inhibition)
Details: time post-induction: 4.5 h; library: site-saturation at positions 5, 18, 19, 20
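Further: peptides expressed intracellularly from a pBAD plasmid library in pooled LB shake-flask culture, induced with 0.3% L-arabinose, DNA abundance read by NGS, three biological replicates, DESeq2 with apeglm shrinkage.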

| Sequence | shrunken log2 fold change |
| --- | --- |
| RRIRSRPPRLPRPRPRPYVPPRP | -0.784 |
| RRIRSRPPRLPRPRPRPYWHPRP | -0.783 |
| RRIRSRPPRLPRPRPRPYWMPRP | -0.648 |
| RRIRTRPPRLPRPRPRPAADPRP | 0.453 |
| RRIRTRPPRLPRPRPRPAALPRP | 0.0806 |
| RRIRTRPPRLPRPRPRPAAWPRP | 0.754 |
| RRIRTRPPRLPRPRPRPACTPRP | 0.212 |
| RRIRTRPPRLPRPRPRPAEMPRP | -0.253 |
| RRIRTRPPRLPRPRPRPAERPRP | -0.104 |
| RRIRTRPPRLPRPRPRPAFQPRP | 0.125 |
| RRIRTRPPRLPRPRPRPAFTPRP | 0.0137 |
| RRIRTRPPRLPRPRPRPAGFPRP | -0.0588 |
| RRIRTRPPRLPRPRPRPAGKPRP | 0.196 |
| RRIRTRPPRLPRPRPRPAGWPRP | 0.517 |
| RRIRTRPPRLPRPRPRPAHAPRP | 0.0759 |
| RRIRTRPPRLPRPRPRPAHLPRP | -0.000138 |
| RRIRTRPPRLPRPRPRPAIIPRP | -0.233 |
| RRIRTRPPRLPRPRPRPAIRPRP | 0.00208 |
| RRIRTRPPRLPRPRPRPAKHPRP | 0.0349 |
| RRIRTRPPRLPRPRPRPAKSPRP | -0.055 |
| RRIRTRPPRLPRPRPRPAKVPRP | -0.29 |
| RRIRTRPPRLPRPRPRPAKYPRP | -0.355 |
| RRIRTRPPRLPRPRPRPAMDPRP | -0.708 |
| RRIRTRPPRLPRPRPRPAMMPRP | -0.109 |
| RRIRTRPPRLPRPRPRPAMPPRP | 0.131 |

| Sequence | shrunken log2 fold change |
| --- | --- |
| RRIRTRPPRLPRPRPRPANAPRP | -0.0933 |
| RRIRTRPPRLPRPRPRPANLPRP | -0.0546 |
| RRIRTRPPRLPRPRPRPANPPRP | 0.0504 |
| RRIRTRPPRLPRPRPRPAPYPRP | 0.151 |
| RRIRTRPPRLPRPRPRPAQAPRP | -0.0199 |
| RRIRTRPPRLPRPRPRPAQDPRP | 0.111 |
| RRIRTRPPRLPRPRPRPAQGPRP | 0.228 |
| RRIRTRPPRLPRPRPRPAQQPRP | 0.233 |
| RRIRTRPPRLPRPRPRPATAPRP | 0.362 |
| RRIRTRPPRLPRPRPRPATPPRP | 0.499 |
| RRIRTRPPRLPRPRPRPAVMPRP | 0.06 |
| RRIRTRPPRLPRPRPRPAWFPRP | 0.131 |
| RRIRTRPPRLPRPRPRPAWHPRP | 0.282 |
| RRIRTRPPRLPRPRPRPAWKPRP | 0.0317 |
| RRIRTRPPRLPRPRPRPAWYPRP | -0.172 |
| RRIRTRPPRLPRPRPRPAYNPRP | -0.355 |
| RRIRTRPPRLPRPRPRPAYRPRP | -0.111 |
| RRIRTRPPRLPRPRPRPAYTPRP | -0.149 |
| RRIRTRPPRLPRPRPRPCARPRP | -0.187 |
| RRIRTRPPRLPRPRPRPCCSPRP | 0.123 |
| RRIRTRPPRLPRPRPRPCCWPRP | 0.0822 |
| RRIRTRPPRLPRPRPRPCDPPRP | -0.072 |
| RRIRTRPPRLPRPRPRPCEQPRP | 0.0027 |
| RRIRTRPPRLPRPRPRPCFGPRP | 0.000833 |
| RRIRTRPPRLPRPRPRPCFVPRP | -0.454 |

| Sequence | shrunken log2 fold change |
| --- | --- |
| RRIRTRPPRLPRPRPRPCHAPRP | -0.0567 |
| RRIRTRPPRLPRPRPRPCIQPRP | 0.0196 |
| RRIRTRPPRLPRPRPRPCKAPRP | -0.00146 |
| RRIRTRPPRLPRPRPRPCKEPRP | -0.00136 |
| RRIRTRPPRLPRPRPRPCKQPRP | -0.254 |
| RRIRTRPPRLPRPRPRPCLCPRP | -0.29 |
| RRIRTRPPRLPRPRPRPCLNPRP | -0.000349 |
| RRIRTRPPRLPRPRPRPCMFPRP | -0.515 |
| RRIRTRPPRLPRPRPRPCMNPRP | -1.43 |
| RRIRTRPPRLPRPRPRPCRGPRP | -0.398 |
| RRIRTRPPRLPRPRPRPCRMPRP | -0.261 |
| RRIRTRPPRLPRPRPRPCRQPRP | -0.303 |
| RRIRTRPPRLPRPRPRPCSEPRP | -0.0314 |
| RRIRTRPPRLPRPRPRPCTVPRP | -0.442 |
| RRIRTRPPRLPRPRPRPCVGPRP | -0.013 |
| RRIRTRPPRLPRPRPRPCYFPRP | -0.616 |
| RRIRTRPPRLPRPRPRPCYPPRP | -0.425 |
| RRIRTRPPRLPRPRPRPCYRPRP | -0.0575 |
| RRIRTRPPRLPRPRPRPDAAPRP | 0.424 |
| RRIRTRPPRLPRPRPRPDAFPRP | -0.014 |
| RRIRTRPPRLPRPRPRPDCWPRP | 0.0105 |
| RRIRTRPPRLPRPRPRPDDEPRP | 0.0101 |
| RRIRTRPPRLPRPRPRPDDHPRP | -0.00476 |
| RRIRTRPPRLPRPRPRPDDMPRP | -0.0233 |
| RRIRTRPPRLPRPRPRPDEHPRP | -0.0955 |
